Measurements from US20020076795A1, “Novel TRF1 binding protein, methods of use thereof” (published 2002).

Key:
[1] = biological target: amino-terminal acidic domain of TRF1 fused to LexA (LexAd68-C) (human) (UniProt P54274); assay: cell-based or functional assay
[2] = biological target: T1, TRF2 (telomeric repeat binding factor 2), Q15554
T1 chain: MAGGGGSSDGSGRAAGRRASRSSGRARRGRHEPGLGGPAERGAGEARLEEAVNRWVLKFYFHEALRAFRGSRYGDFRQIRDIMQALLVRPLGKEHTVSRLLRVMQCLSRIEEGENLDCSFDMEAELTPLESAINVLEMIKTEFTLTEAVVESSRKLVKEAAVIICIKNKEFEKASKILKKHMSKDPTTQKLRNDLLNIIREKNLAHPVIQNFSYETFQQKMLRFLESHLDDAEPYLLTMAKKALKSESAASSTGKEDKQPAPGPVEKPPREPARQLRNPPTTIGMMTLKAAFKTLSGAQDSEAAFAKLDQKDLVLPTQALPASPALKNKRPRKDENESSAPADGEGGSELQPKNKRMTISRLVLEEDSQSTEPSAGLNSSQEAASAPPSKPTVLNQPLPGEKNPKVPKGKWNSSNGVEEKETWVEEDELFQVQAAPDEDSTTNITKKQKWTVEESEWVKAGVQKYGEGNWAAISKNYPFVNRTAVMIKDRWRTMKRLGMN

[3] = biological target: T2, baculovirus-derived TRF1, P54274
T2 chain: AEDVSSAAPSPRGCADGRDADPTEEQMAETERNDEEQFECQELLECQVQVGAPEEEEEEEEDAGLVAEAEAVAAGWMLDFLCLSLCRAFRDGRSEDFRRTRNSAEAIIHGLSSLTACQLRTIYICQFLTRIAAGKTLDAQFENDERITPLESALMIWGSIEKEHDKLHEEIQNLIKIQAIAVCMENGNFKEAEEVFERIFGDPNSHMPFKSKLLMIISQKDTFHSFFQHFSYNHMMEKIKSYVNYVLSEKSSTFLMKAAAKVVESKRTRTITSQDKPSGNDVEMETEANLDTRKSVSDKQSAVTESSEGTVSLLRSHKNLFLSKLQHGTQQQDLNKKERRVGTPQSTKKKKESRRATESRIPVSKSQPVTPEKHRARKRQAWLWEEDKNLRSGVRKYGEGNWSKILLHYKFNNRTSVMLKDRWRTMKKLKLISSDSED

[4] = biological target: T3, GAD-tankyrase hybrid containing 10 internal ANK repeats (9-19) (TR1L-12) (human, UniProt O95271 436-797); assay: yeast two-hybrid, β-galactosidase; LexA without TRF1 sequences
T3 construct: the construct holds only ANK repeats 9-19; also called 10-ANK repeat domain of tankyrase
T3 sequence: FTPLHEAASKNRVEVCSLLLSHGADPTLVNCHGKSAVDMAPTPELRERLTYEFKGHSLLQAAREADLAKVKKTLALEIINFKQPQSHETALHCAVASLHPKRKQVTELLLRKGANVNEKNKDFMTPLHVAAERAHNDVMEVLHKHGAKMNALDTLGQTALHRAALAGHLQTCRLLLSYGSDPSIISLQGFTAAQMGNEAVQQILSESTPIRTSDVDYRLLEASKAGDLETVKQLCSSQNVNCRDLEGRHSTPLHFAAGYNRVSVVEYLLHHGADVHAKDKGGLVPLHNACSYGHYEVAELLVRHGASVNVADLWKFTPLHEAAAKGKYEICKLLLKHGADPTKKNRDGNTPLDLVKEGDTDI
Experimental: TR1L-4 and TR1L-12 were isolated from a human liver two-hybrid cDNA library (Clontech) created in pGad10. The library was screened with human full length TRF1 cDNA fused to LexA (LexA-TRF1) [Bianchi et al., EMBO J., 16:1785-1794 (1997)] in the yeast strain L40 as described [Hollenberg et al., Mol. Cell Biol., 15:3813-3822 (1995)]. Two-hybrid analysis was performed as described by Bianchi et al. [EMBO J., 16:1785-1794 (1997)]. β-galactosidase assays for the two-hybrid analysis was performed as described by Bianchi et al. [EMBO J., 16:1785-1794 (1997)].
Two-hybrid analysis was used to determine the interacting domains between tankyrase and TRF1. […] To determine the tankyrase-interacting domain in TRF1, two-hybrid analysis was performed with the 10-ANK repeat domain of TR1L-12 fused to the GAL4 activation domain (GAD-tankyrase) and full-length and deletion constructs of TRF1 fused to LexA. […] As observed previously, the amino-terminal acidic domain of TFR1 (LexAd68-C) activated transcription even in the absence of tankyrase sequences in the GAD fusion partner. […] Deletion of the acidic domain of TRF1 (ΔN66-LexA) abolished the interaction with GAD-tankyrase.

[5] = biological target: T4, FLAG-tankyrase (encoding amino acids 2-1327 of SEQ ID NO:2) (human, UniProt O95271 2-1327); assay: indirect immunofluorescence of co-transfected HeLaI cells (co-localization, nuclear translocation)
T4 construct: Expressed by transient transfection in HeLaI cells; also called exogenous tankyrase; transfected tankyrase
T4 sequence: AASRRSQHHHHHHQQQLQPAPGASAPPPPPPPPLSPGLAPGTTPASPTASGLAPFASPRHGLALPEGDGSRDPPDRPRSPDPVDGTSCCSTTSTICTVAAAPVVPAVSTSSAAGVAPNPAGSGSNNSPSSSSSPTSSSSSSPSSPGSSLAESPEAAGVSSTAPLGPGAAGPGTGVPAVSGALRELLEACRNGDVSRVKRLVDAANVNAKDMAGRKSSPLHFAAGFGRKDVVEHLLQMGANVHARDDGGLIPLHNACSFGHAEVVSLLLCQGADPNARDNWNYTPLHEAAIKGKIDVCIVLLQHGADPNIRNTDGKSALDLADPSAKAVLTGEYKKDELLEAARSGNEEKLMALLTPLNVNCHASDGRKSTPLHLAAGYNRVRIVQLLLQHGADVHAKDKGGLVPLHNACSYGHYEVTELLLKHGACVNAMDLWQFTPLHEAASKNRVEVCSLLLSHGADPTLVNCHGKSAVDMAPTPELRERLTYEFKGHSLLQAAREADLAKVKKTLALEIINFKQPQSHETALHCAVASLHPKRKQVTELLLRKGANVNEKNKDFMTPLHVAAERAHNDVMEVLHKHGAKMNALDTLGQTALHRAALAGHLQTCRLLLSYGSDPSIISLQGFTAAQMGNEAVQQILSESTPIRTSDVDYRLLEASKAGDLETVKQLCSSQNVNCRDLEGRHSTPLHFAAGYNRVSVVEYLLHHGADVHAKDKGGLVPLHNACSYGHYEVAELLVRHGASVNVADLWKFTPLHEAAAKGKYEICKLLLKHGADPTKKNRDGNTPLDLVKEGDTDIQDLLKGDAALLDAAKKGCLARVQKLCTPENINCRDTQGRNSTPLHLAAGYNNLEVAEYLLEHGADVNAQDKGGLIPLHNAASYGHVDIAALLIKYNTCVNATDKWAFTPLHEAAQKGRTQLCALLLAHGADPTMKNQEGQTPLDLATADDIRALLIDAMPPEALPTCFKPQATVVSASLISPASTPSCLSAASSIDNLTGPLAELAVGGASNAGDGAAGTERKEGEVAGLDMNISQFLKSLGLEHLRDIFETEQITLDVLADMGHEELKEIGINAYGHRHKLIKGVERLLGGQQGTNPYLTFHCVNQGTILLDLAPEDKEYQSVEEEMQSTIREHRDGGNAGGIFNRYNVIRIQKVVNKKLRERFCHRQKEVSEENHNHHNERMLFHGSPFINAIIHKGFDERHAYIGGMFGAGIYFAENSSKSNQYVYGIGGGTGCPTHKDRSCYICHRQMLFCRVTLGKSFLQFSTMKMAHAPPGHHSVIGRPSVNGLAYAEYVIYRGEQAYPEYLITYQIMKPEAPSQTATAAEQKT

GAD-tankyrase hybrid containing 10 internal ANK repeats (9-19) (TR1L-12) (from UniProt O95271 436-797)
β-galactosidase levels (two-hybrid) [1]: 50.4 units

B1: baculovirus-derived N-terminally [His]6-tagged fusion protein of human tankyrase (protein)
chain: MAASRRSQHHHHHHQQQLQPAPGASAPPPPPPPPLSPGLAPGTTPASPTASGLAPFASPRHGLALPEGDGSRDPPDRPRSPDPVDGTSCCSTTSTICTVAAAPVVPAVSTSSAAGVAPNPAGSGSNNSPSSSSSPTSSSSSSPSSPGSSLAESPEAAGVSSTAPLGPGAAGPGTGVPAVSGALRELLEACRNGDVSRVKRLVDAANVNAKDMAGRKSSPLHFAAGFGRKDVVEHLLQMGANVHARDDGGLIPLHNACSFGHAEVVSLLLCQGADPNARDNWNYTPLHEAAIKGKIDVCIVLLQHGADPNIRNTDGKSALDLADPSAKAVLTGEYKKDELLEAARSGNEEKLMALLTPLNVNCHASDGRKSTPLHLAAGYNRVRIVQLLLQHGADVHAKDKGGLVPLHNACSYGHYEVTELLLKHGACVNAMDLWQFTPLHEAASKNRVEVCSLLLSHGADPTLVNCHGKSAVDMAPTPELRERLTYEFKGHSLLQAAREADLAKVKKTLALEIINFKQPQSHETALHCAVASLHPKRKQVTELLLRKGANVNEKNKDFMTPLHVAAERAHNDVMEVLHKHGAKMNALDTLGQTALHRAALAGHLQTCRLLLSYGSDPSIISLQGFTAAQMGNEAVQQILSESTPIRTSDVDYRLLEASKAGDLETVKQLCSSQNVNCRDLEGRHSTPLHFAAGYNRVSVVEYLLHHGADVHAKDKGGLVPLHNACSYGHYEVAELLVRHGASVNVADLWKFTPLHEAAAKGKYEICKLLLKHGADPTKKNRDGNTPLDLVKEGDTDIQDLLKGDAALLDAAKKGCLARVQKLCTPENINCRDTQGRNSTPLHLAAGYNNLEVAEYLLEHGADVNAQDKGGLIPLHNAASYGHVDIAALLIKYNTCVNATDKWAFTPLHEAAQKGRTQLCALLLAHGADPTMKNQEGQTPLDLATADDIRALLIDAMPPEALPTCFKPQATVVSASLISPASTPSCLSAASSIDNLTGPLAELAVGGASNAGDGAAGTERKEGEVAGLDMNISQFLKSLGLEHLRDIFETEQITLDVLADMGHEELKEIGINAYGHRHKLIKGVERLLGGQQGTNPYLTFHCVNQGTILLDLAPEDKEYQSVEEEMQSTIREHRDGGNAGGIFNRYNVIRIQKVVNKKLRERFCHRQKEVSEENHNHHNERMLFHGSPFINAIIHKGFDERHAYIGGMFGAGIYFAENSSKSNQYVYGIGGGTGCPTHKDRSCYICHRQMLFCRVTLGKSFLQFSTMKMAHAPPGHHSVIGRPSVNGLAYAEYVIYRGEQAYPEYLITYQIMKPEAPSQTATAAEQKT
ADP-ribosylation (PARP assay) [2]: TRF2 is not a substrate for modification in vitro | ADP-ribosylation of TRF1 (PARP assay with [32P]NAD+) [3]: Tankyrase also has the ability to modify TRF1

B2: LexA (alone) (other, UniProt P0A7C2 1-202, looked up)
chain: MKALTARQQEVFDLIRDHISQTGMPPTRAEIAQRLGFRSPNAAEEHLKALARKGVIEIVSGASRGIRLLQEEEEGLPLVGRVAAGEPLLAQQHIEGHYQVDPSLFKPNADFLLRVSGMSMKDIGIMDGDLLAVHKTQDVRNGQVVVARIDDEVTVKRLKKQGNKVELLPENSEFKPIVVDLRQQSFTIEGLAVGVIRNGDWL
notes: Control
binding result [4]: no binding

B3: human TRF1 (telomeric repeat binding factor 1), expressed from pcDNA3-hTRF1 in HeLaI cells (other, UniProt P54274 1-439, looked up)
chain: MAEDVSSAAPSPRGCADGRDADPTEEQMAETERNDEEQFECQELLECQVQVGAPEEEEEEEEDAGLVAEAEAVAAGWMLDFLCLSLCRAFRDGRSEDFRRTRNSAEAIIHGLSSLTACQLRTIYICQFLTRIAAGKTLDAQFENDERITPLESALMIWGSIEKEHDKLHEEIQNLIKIQAIAVCMENGNFKEAEEVFERIFGDPNSHMPFKSKLLMIISQKDTFHSFFQHFSYNHMMEKIKSYVNYVLSEKSSTFLMKAAAKVVESKRTRTITSQDKPSGNDVEMETEANLDTRKSVSDKQSAVTESSEGTVSLLRSHKNLFLSKLQHGTQQQDLNKKERRVGTPQSTKKKKESRRATESRIPVSKSQPVTPEKHRARKRQAWLWEEDKNLRSGVRKYGEGNWSKILLHYKFNNRTSVMLKDRWRTMKKLKLISSDSED
binding result [5]: binds
